From patent US20160046705A1 (Amgen, published 2016)
Blank lines part the entries; values can stand above or below the binder they belong to.

Biological target: T1, human sclerostin (human, UniProt Q9BQB4 24-213, biotin-labeled (site not stated))
T1 construct: also called biotin-labeled human sclerostin; SOST
T1 sequence: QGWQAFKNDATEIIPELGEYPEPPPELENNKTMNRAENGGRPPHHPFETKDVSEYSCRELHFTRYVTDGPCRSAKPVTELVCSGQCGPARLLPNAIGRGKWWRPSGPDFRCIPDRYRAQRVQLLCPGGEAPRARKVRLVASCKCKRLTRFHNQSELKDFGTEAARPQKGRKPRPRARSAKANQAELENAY
Assay: competition alpha screen, increasing antibody against his-tagged LRP6 / biotin-labeled human sclerostin

binding result: binds
B1: 27H6 (antibody, V domains shown)
VH: EVQLVESGGGLVQPGGSLRLSCAASGFTFSSYSMNWVRQAPGKGLEWVSYISSSGSSIYYADSVKGRFTISRDNAKNSLYLQMNSLRDEDTAVYYCARERYYGDTPFDYWGQGTLVTVSS
VL: DIVMTQTPLSLPVTPGEPASISCRSSQSLLNSVDGSTNLDWYLQKPGQSPQLLIYTLSYRASGVPDRFSGSGSGTDFTLKISRVEAEDVGVYYCMQRIEFPLTFGGGTKVEIK
notes: also called sclerostin antibody 27H6

binding result: binds
B2: 20C3 (antibody, V domains shown)
VH: QVQLQESGPGLVKPSETLSLTCTVSGGSISSYYWSWIRQPPGKGLEWIGYISDSGSTNYNPSLKSRIPISVDTSKNQFSLKLSSVTAADTAVYYCARWQLAHDAFDIWGQGTMVTVSS
VL: QSALTQPASVSGSPGQSITISCTGTSSDVGGYNYVSWYQQHPGKAPKLMIYEVSYRPSGVSNRFSGSKSGSTASLTISGLQPEDEADYYCSSYAISSTLVFGGGTKMTVL
notes: Parental anti-sclerostin antibody, described as directed against the loop 2 region of sclerostin
